± gives the standard deviation of the averaged measurements.
Test system: ATP
Test: switch fluorescence ratio, 500 uM ATP over buffer (Cy3 cluster intensity, sum of 5 cycles each) (fold (ratio)); higher = stronger signal-on switching upon ATP binding; sequences stand for … in TCGTCGGCAGCGTCAGATGTGTATAAGAGACAGTTTTTTTTTTTTTTTTTTTTTTTTT…TC
Details: aptamer strand: ATP DNA aptamer (quencher-CACCTGGGGGAGTATTGCGGAGGAAGG + anchor), 100 nM annealed; ATP concentration: 500 uM
Method in brief: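 Switching-strand clusters labelled with Cy3 on a modified Illumina MiSeq flow-cell were annealed to 100 nM quencher-labelled ATP aptamer, imaged in selection buffer, and re-imaged after 15 min with 500 uM ATP at 22 °C. This was done over five cycles with NaOH stripping and re-annealing in between. The fluorescence ratio is summed target-cycle over summed buffer-cycle Cy3 intensity per cluster, averaged per switch-domain sequence, excluding clusters outside 100-1000 RFU.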
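Further: ATP exposure 15 min at 22 °C before imaging.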

Sequence | switch fluorescence ratio
CGTTGGGCTG | 1.02 ± 0.038
CGTTGGGGGG | 0.999 ± 0.03
CGTTGGTACG | 1 ± 0.022
CGTTGTAAGG | 1.01 ± 0.027
CGTTGTCGTT | 1.01 ± 0.055
CGTTGTTCGC | 1.02 ± 0.028
CGTTTAAAAG | 0.975 ± 0.022
CGTTTAGACG | 1.09 ± 0.095
CGTTTATCTG | 0.972 ± 0.025
CGTTTCAGGT | 0.994 ± 0.036
CGTTTCATCT | 0.987 ± 0.065
CGTTTCCTTT | 0.993 ± 0.024
CGTTTCTGGG | 1.007 ± 0.0015
CGTTTGAAAA | 1.019 ± 0.0058
CGTTTGAATA | 0.974 ± 0.052
CGTTTGATGC | 1.018 ± 0.0033
CGTTTGCCGT | 0.985 ± 0.024
CGTTTGGAGG | 1.03 ± 0.016
CGTTTGGCCC | 0.988 ± 0.044
CGTTTGGGCT | 1.023 ± 0.0037
CGTTTGTCCT | 0.9907 ± 0.0036
CGTTTTATCA | 0.9914 ± 0.0074
CGTTTTGGGT | 1.01 ± 0.033
CGTTTTGGTG | 0.9914 ± 0.0052
CGTTTTTACT | 0.99 ± 0.052

Sequence | switch fluorescence ratio
CGTTTTTATG | 1.03 ± 0.04
CGTTTTTCTT | 0.958 ± 0.05
CGTTTTTGAT | 0.981 ± 0.04
CGTTTTTGTA | 0.99 ± 0.015
CTAAAAAATT | 1.01 ± 0.022
CTAAAAACTA | 0.978 ± 0.013
CTAAAAGGCG | 1.06 ± 0.04
CTAAACAGGG | 1.03 ± 0.011
CTAAAGAAAG | 0.989 ± 0.013
CTAAAGAGCA | 1.03 ± 0.073
CTAAATGTTT | 1 ± 0.05
CTAAATTTAG | 0.995 ± 0.023
CTAACAATAA | 1.05 ± 0.081
CTAACTGGCA | 1.048 ± 0.009
CTAACTGTTA | 0.99 ± 0.015
CTAAGAAGGG | 1.05 ± 0.061
CTAAGAGCGC | 1.08 ± 0.064
CTAAGAGGGC | 1.0235 ± 0.00018
CTAAGCGGCG | 0.999 ± 0.026
CTAAGGGGGG | 1.04 ± 0.033
CTAAGGGGTT | 0.991 ± 0.036
CTAAGTAGCC | 1.01 ± 0.015
CTAAGTTTGG | 1.018 ± 0.0037
CTAATAGTTA | 0.972 ± 0.0099
CTAATCCACT | 1.028 ± 0.004

Sequence | switch fluorescence ratio
CTAATCGGTC | 0.874 ± 0.029
CTAATGAGTT | 0.999 ± 0.03
CTAATGATGG | 1.01 ± 0.056
CTAATGTGTC | 1.02 ± 0.088
CTAATTGAAC | 1.009 ± 0.0032
CTAATTTACG | 1.06 ± 0.028
CTAATTTGGT | 1.01 ± 0.016
CTACGAGGTA | 1.045 ± 0.0027
CTACGCCTGG | 1.66 ± 0.044
CTACGGAGGG | 1.06 ± 0.023
CTACGTAATG | 3.16 ± 0.27
CTACTACTGA | 1.08 ± 0.015
CTAGAAAGTT | 0.9778 ± 0.0029
CTAGATATGT | 0.99 ± 0.011
CTAGATTCGC | 0.984 ± 0.025
CTAGATTGGG | 1.015 ± 0.0043
CTAGCATGAT | 1.03 ± 0.061
CTAGCCATTG | 0.995 ± 0.022
CTAGGCTAAT | 1.014 ± 0.01
CTAGGGCGCC | 0.975 ± 0.012
CTAGGGGGCG | 0.992 ± 0.058
CTAGGGGGGG | 0.988 ± 0.021
CTAGGGGTAC | 1.16 ± 0.17
CTAGGTATAG | 1.006 ± 0.0072
CTAGGTCGGA | 1.01 ± 0.021

Sequence | switch fluorescence ratio
CTAGGTGACG | 1.004 ± 0.0075
CTAGGTGTGT | 1.02 ± 0.051
CTAGGTTAAA | 0.988 ± 0.023
CTAGGTTGCA | 0.9871 ± 0.0052
CTAGGTTTGG | 1.02 ± 0.033
CTAGTCAATC | 1.7 ± 0.072
CTAGTGAGTG | 0.984 ± 0.036
CTAGTTAAGG | 1.011 ± 0.0048
CTAGTTAGGG | 0.964 ± 0.02
CTAGTTTTTA | 1.009 ± 0.007
CTATACTTGA | 0.999 ± 0.031
CTATCAACCG | 1.04 ± 0.022
CTATCCATGG | 0.993 ± 0.017
CTATCTCTTG | 1 ± 0.017
CTATGACGTT | 0.998 ± 0.019
CTATGATATT | 0.947 ± 0.042
CTATGATTCG | 1.01 ± 0.023
CTATGATTTA | 0.975 ± 0.027
CTATGGGCCG | 0.972 ± 0.028
CTATGTAGTC | 1.01 ± 0.019
CTATGTGGAG | 0.975 ± 0.033
CTATGTGTGG | 0.976 ± 0.021
CTATTAGGGC | 1.04 ± 0.0026
CTATTGGGAT | 0.98078 ± 0.00046
CTATTGGTTA | 1.01 ± 0.011

Sequence | switch fluorescence ratio
CTCAAAGTCT | 1.02 ± 0.012
CTCAACACCT | 1.35 ± 0.048
CTCAATAGGG | 1.01 ± 0.038
CTCAATTATG | 0.972 ± 0.043
CTCACATTGA | 1.05 ± 0.025
CTCAGGTATC | 1.11 ± 0.012
CTCAGTATTT | 1.01 ± 0.018
CTCAGTGGTA | 1.014 ± 0.0043
CTCATAGCGG | 1.02 ± 0.029
CTCATAGTAG | 0.988 ± 0.016
CTCATCGGGC | 1.06 ± 0.032
CTCATGAAAC | 1.01 ± 0.046
CTCATGACGG | 1.044 ± 0.0061
CTCATGGGGA | 1.04 ± 0.075
CTCATTTGGT | 0.989 ± 0.028
CTCCAGGGGA | 1.5 ± 0.49
CTCCGAGATG | 5.85 ± 0.59
CTCCGGGGGA | 1.33 ± 0.31
CTCCGTTTTT | 2.88 ± 0.62
CTCCTGTGTT | 1.06 ± 0.0073
CTCCTGTTTT | 1.02 ± 0.023
CTCGACAGGG | 0.991 ± 0.019
CTCGGAGAGG | 0.987 ± 0.033
CTCGGAGATT | 1.01 ± 0.018
CTCGGAGGGA | 0.985 ± 0.04

Sequence | switch fluorescence ratio
CTCGGCGTCC | 1.142 ± 0.0086
CTCGGCTTGA | 1.06 ± 0.018
CTCGGGATCA | 1.011 ± 0.0028
CTCGGGGGGC | 0.992 ± 0.063
CTCGGGGTCG | 0.994 ± 0.047
CTCGGGGTTT | 0.998 ± 0.038
CTCGGTATGC | 1.257 ± 0.0034
CTCGGTTAGG | 0.9819 ± 0.0095
CTCGTAGGGG | 1.01 ± 0.039
CTCGTTGAGG | 0.979 ± 0.032
CTCGTTGCGG | 1.06 ± 0.07
CTCGTTTGAT | 1 ± 0.026
CTCTAAGGGT | 1.005 ± 0.0098
CTCTAAGTCG | 0.976 ± 0.011
CTCTGAGCGG | 1.03 ± 0.048
CTCTGAGGGA | 1.01 ± 0.027
CTCTGGGCAT | 2.2 ± 1.9
CTCTGTAGGC | 1.87 ± 0.31
CTCTGTCACG | 1.11 ± 0.074
CTCTTAGGGG | 1.12 ± 0.16
CTCTTGAGCC | 1.01 ± 0.044
CTCTTTGGAC | 1.53 ± 0.89
CTCTTTTGGG | 0.9652 ± 0.0019
CTGAAAGATA | 0.977 ± 0.055
CTGAAATCTG | 0.9971 ± 0.0094

Sequence | switch fluorescence ratio
CTGAACTCGA | 1.09 ± 0.046
CTGAAGCTGT | 2.64 ± 1.3
CTGAAGGGAT | 1.05 ± 0.023
CTGAAGGTTG | 0.9737 ± 0.0014
CTGAATATGA | 1 ± 0.065
CTGAATGC | 1.17 ± 0.035
CTGAATGCAG | 1.069 ± 0.0077
CTGAATGTAG | 1 ± 0.011
CTGAATTAAG | 0.99 ± 0.016
CTGAATTGGT | 0.975 ± 0.012
CTGAATTTCA | 0.9833 ± 0.0017
CTGACATGAT | 1.07 ± 0.04
CTGACCGGAG | 1.24 ± 0.036
CTGACTCCTT | 1.517 ± 0.015
CTGAGATTTT | 0.931 ± 0.018
CTGAGCTTTC | 1.29 ± 0.15
CTGAGGTAAT | 1.94 ± 0.21
CTGATCATTC | 1.04 ± 0.045
CTGATGGCGT | 1 ± 0.0068
CTGATGGGTG | 1.01 ± 0.013
CTGATGGTAG | 1.01 ± 0.015
CTGATGTACG | 1.06 ± 0.12
CTGATGTGTA | 0.965 ± 0.059
CTGATGTTGT | 1.0036 ± 0.00066
CTGATTGTAC | 1.08 ± 0.069

Sequence | switch fluorescence ratio
CTGATTGTGT | 0.9718 ± 0.0034
CTGATTTGTA | 1 ± 0.053
CTGCAAGACA | 2.64 ± 0.72
CTGCAGATCG | 1.02 ± 0.06
CTGCAGGGGA | 1.05 ± 0.048
CTGCATGGGG | 1.062 ± 0.0025
CTGCGTCCAT | 1.068 ± 0.01
CTGCGTCGGA | 1.01 ± 0.032
CTGCGTCTTT | 1.03 ± 0.015
CTGCTAATAT | 1.73 ± 0.14
CTGCTAGGTA | 0.9975 ± 0.0027
CTGCTCGGTG | 0.987 ± 0.062
CTGCTTAAGG | 1.04 ± 0.065
CTGCTTCGAA | 1.06 ± 0.023
CTGGAAATGG | 1.033 ± 0.0095
CTGGACAGTG | 0.956 ± 0.013
CTGGAGGACT | 1.026 ± 0.0098
CTGGATTGAG | 0.956 ± 0.027
CTGGCCAAGT | 0.999 ± 0.02
CTGGCGGAAA | 1.05 ± 0.093
CTGGCGTTCG | 0.983 ± 0.033
CTGGGAAGGG | 0.9281 ± 0.0061
CTGGGAAGTG | 0.978 ± 0.003
CTGGGATGGG | 1.06 ± 0.13
CTGGGGCGTG | 1.02 ± 0.014
